Experimental findings from WO2020135415A1 (dated 2020) are described below.

One assay addresses PD-L1 expressed by DC. Put plainly: cell-based or functional assay.
The next assay concerns the target T1, human PD-L1 protein (human, UniProt Q9NZQ7 19-238, limits assumed).
T1 construct: also called hPD-L1; huPD-L1
Put plainly: binding to human PD-L1 protein; method not stated.

PD-L1 expressed by DC, sequence (Q9NZQ7 whole entry): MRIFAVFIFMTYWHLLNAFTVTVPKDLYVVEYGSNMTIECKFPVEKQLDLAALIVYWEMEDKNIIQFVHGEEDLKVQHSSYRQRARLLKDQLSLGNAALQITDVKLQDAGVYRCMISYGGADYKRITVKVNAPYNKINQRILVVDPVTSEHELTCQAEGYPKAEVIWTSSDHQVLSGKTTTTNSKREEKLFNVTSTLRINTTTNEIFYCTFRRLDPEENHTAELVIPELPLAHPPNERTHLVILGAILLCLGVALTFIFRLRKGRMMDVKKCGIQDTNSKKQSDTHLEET
T1 sequence (Q9NZQ7 19-238 limits assumed): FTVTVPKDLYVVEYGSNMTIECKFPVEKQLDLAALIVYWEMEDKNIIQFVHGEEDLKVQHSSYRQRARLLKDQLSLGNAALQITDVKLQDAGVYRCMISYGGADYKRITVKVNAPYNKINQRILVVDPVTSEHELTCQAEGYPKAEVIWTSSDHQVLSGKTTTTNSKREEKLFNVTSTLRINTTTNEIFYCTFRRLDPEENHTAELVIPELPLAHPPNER

B1: hu5G11-hIgG1 (antibody, V domains shown)
VH: QITLKESGPTLVKPTQTLTLTCTVSGFSLSTYGVHWIRQPPGKALEWLGVIWRGVTTDYNAAFMSRLTITKDNSKNQVVLTMNNMDPVDTATYYCARLGFYAMDYWGQGTLVTVSS
VL: DIQMTQSPSSLSASVGDRVTITCKASQSVSNDVAWYQQKPGKAPKLLIYYAANRYTGVPDRFSGSGYGTDFTFTISSLQPEDIATYFCQQDYTSPYTFGQGTKLEIKR
What is called EC50 is the concentration at which the effect is half-maximal. Low values mean an effect from little substance, high ones a need for much substance. As for B1, the “secretion of IFN-γ in MLR of CD4+:DC cells, EC50” value in the assay with PD-L1 expressed by DC is 0.035 µg/mL. In the assay with human PD-L1 protein, this molecule had an EC50 of 0.0213 µg/mL.
